This is an account of results in patent US20190359693A1.

As usually defined, the Kd is the free concentration of one partner at which half of the binding sites on the other are occupied at equilibrium, for simple one-to-one binding.

Assay [1] has as its target hemagglutinin (HA) of influenza virus B/Florida/04/06 (Yamagata) (influenza B virus). Briefly: cell-based or functional assay.
The target of assay [2] is hemagglutinin (HA) of influenza virus B/Harbin/7/94 (Yamagata) (influenza B virus). Briefly: cell-based or functional assay.
The target of assay [3] is hemagglutinin (HA) of influenza virus H10N3 A/Common Teal/MPH11/08 (influenza A virus). Briefly: cell-based or functional assay.
Assay [4] has as its target hemagglutinin (HA) of influenza virus H10N9 A/Northern Shoveler/MPE2531/08 (influenza A virus). Description: cell-based or functional assay.
In assay [5] the target is hemagglutinin (HA) of influenza virus H12N5 A/Env/MPK659/09 (influenza A virus). Description: cell-based or functional assay.
Assay [6] addresses hemagglutinin (HA) of influenza virus H1N1 A/California/07/09 (influenza A virus). Description: cell-based or functional assay.
Assay [7] has as its target hemagglutinin (HA) of influenza virus H1N1 A/Christchurch/16/10 (influenza A virus). Briefly: cell-based or functional assay.
For assay [8], the target named is hemagglutinin (HA) of influenza virus H1N1 A/New Caledonia/20/99 (influenza A virus). Briefly: cell-based or functional assay.
Assay [9] deals with hemagglutinin (HA) of influenza virus H2N2 A/Guiyang/1/57 (influenza A virus). Briefly: cell-based or functional assay.
Assay [10] deals with hemagglutinin (HA) of influenza virus H3N2 A/Brisbane/10/07 (influenza A virus). Description: cell-based or functional assay.
Assay [11] addresses hemagglutinin (HA) of influenza virus H3N2 A/Hiroshima/52/05 (influenza A virus). Description: cell-based or functional assay.
For assay [12], the target named is hemagglutinin (HA) of influenza virus H4N1 A/Northern Pintail/MPB1368/06 (influenza A virus). Description: cell-based or functional assay.
For assay [13], the target named is hemagglutinin (HA) of influenza virus H6N1 A/Eurasian Wigeon/MPG1884/09 (influenza A virus). Description: cell-based or functional assay.
The target of assay [14] is hemagglutinin (HA) of influenza virus H7N3 A/NIBRG/60 (A/mallard/Netherlands/12/00) (influenza A virus). Description: cell-based or functional assay.
In assay [15] the target is hemagglutinin (HA) of influenza virus H7N7 A/Netherlands/219/2003 (influenza A virus). Briefly: cell-based or functional assay.
Assay [16] deals with hemagglutinin (HA) of influenza virus H7N7 A/Northern Shoveler/MPF518/08 (influenza A virus). Description: cell-based or functional assay.
Assay [17] concerns the target hemagglutinin (HA) of influenza virus H9N2 A/Ck/HK/SSP176/09 (influenza A virus). Briefly: cell-based or functional assay.
In assay [18] the target is recombinant HA of B/Brisbane/60/08 (Victoria) (influenza B virus). Description: biolayer interferometry (Octet), steady-state fit, geometric mean, pH 7.4. (In general: In BLI a coated tip is dipped into the sample, and binding shifts an interference pattern.)
For assay [19], the target named is recombinant HA of H1N1 A/Brisbane/59/07 (influenza A virus). The assay is described as above.
Assay [20] deals with recombinant HA of H3N2 A/HK/1/68-MA (influenza A virus). The assay is described as above.
The target in assay [21] is recombinant HA of H3N2 A/Wisconsin/67/05 (influenza A virus). Described as above.
Assay [22] has as its target recombinant HA of H7N3 A/NIBRG/60 (A/mallard/NL/12/00) (influenza A virus). The description is as above.
Assay [23] has as its target recombinant HA of H7N9 A/Hangzhou/1/2013 (influenza A virus). The description is as above.

B1: MD2407 (bispecific antibody)
chain: EVQLVESGGGLVQPGGSLRLSCAVSISIFDIYAMDWYRQAPGKQRDLVATSFRDGSTNYADSVKGRFTISRDNAKNTLYLQMNSLKPEDTAVYLCHVSLYRDPLGVAGGMGVYWGKGALVTVSSGGGGSGGGGSEVQLVESGGGLVQAGGSLKLSCAASGRTYAMGWFRQAPGKEREFVAHINALGTRTYYSDSVKGRFTISRDNAKNTEYLEMNNLKPEDTAVYYCTAQGQWRAAPVAVAAEYEFWGQGTQVTVSSGGGGSGGGGSEVQLVESGGGLVQPGGSLRLSCAATGFTLENKAIGWFRQTPGSEREGVLCISKSGSWTYYTDSMRGRFTISRDNAENTVYLQMDSLKPEDTAVYYCATTTAGGGLCWDGTTFSRLASSWGQGTQVTVSSGGGGSGGGGSEVQLVESGGGLVQPGGSLKLSCAASGFTFSTSWMYWLRQAPGKGLEWVSVINTDGGTYYADSVKDRFTISRDNAKDTLYLQMSSLKSEDTAVYYCAKDWGGPEPTRGQGTQVTVSS
Consider B1, for which the average neutralization titer in assay [1] was 7.6 nM; in assay [2], 6.4 nM; in [3], 19.3 nM; in [4] it was 35 nM; in [5] it was more than 1000 nM; in [6], 3.4 nM. The average neutralization titer in assay [7] worked out at 1.3 nM; in assay [8], 5.7 nM; in [9], 126 nM; in assay [10], 10.6 nM; in [11], 10.5 nM; in [12] it was 8.2 nM. In addition, the average neutralization titer is 20.6 nM in assay [13]; 13.8 nM in [14]; 33 nM in [15]; 36.1 nM in assay [16]; 23 nM in [17]. The Kd in assay [18] came out at 3.1 nM; in [19], 2.8 nM; in assay [20], 2.2 nM; in assay [21], 0.5 nM; in assay [22] it was 1.2 nM; in assay [23], 1.7 nM.
